Test results: patent US20220396616A1

How the values were obtained:
human CLDN18.1 (human) [1] = biological target: human CLDN18.1 (human) (UniProt P56856); assay: flow cytometry on CLDN18.1-HEK293 cells, 100 µg/mL antibody, replicate 3
human CLDN18.1 (human) [2] = biological target: human CLDN18.1 (human) (UniProt P56856); assay: flow cytometry on CLDN18.1-HEK293 cells, 100 µg/mL antibody, replicate 1
human CLDN18.1 (human) [3] = biological target: human CLDN18.1 (human) (UniProt P56856); assay: flow cytometry on CLDN18.1-HEK293 cells, 100 µg/mL antibody, replicate 2

human CLDN18.1 (human), sequence (P56856 whole entry): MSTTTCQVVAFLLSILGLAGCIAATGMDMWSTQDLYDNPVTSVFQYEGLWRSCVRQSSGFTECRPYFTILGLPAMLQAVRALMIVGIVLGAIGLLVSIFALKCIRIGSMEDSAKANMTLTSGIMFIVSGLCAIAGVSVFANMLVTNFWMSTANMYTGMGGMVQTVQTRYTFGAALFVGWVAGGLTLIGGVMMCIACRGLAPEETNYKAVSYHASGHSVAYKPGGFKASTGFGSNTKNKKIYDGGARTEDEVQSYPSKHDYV

- positive rate of cell binding (human CLDN18.1 (human) [1]): 0.115%
- positive rate of cell binding (human CLDN18.1 (human) [2]): 0.063%
- positive rate of cell binding (human CLDN18.1 (human) [3]): 0.233%
Substance: hIgG1 isotype antibody
